By IC50 is commonly meant the concentration that inhibits the measured activity by half.

In experiment [1] the target is Mamu-A2*01:02 (Chinese rhesus macaque | not stated). The experiment can be described thus: radioligand binding.
For experiment [2], the target named is Mamu-B*010:01 (Chinese rhesus macaque | not stated). The experiment can be described thus: radioligand binding.

EREQTLNQL [… (C. trachomatis ATP-dependent zinc protein)]: the half-maximal inhibitory concentration (IC50) in experiment [1] is 13.2 µM; in experiment [2], above 20 µM.
In the case of SRHHAFCFR [… (Aggrecan precursor p667)], the IC50 was 2.06 µM in experiment [1] and above 20 µM in experiment [2].
For NRAKQVIKL [… (C. trachomatis protease ATPase)] the same measures were above 20 µM and 0.106 µM.
On to DRLALLANL [… (C. trachomatis recC exodeoxyribonuclease-V g chain)], for which the IC50 in experiment [1] is 19.1 µM; in experiment [2], above 20 µM.
For the molecule MRDHTITLL [… (C. trachomatis NADH-ubiquinone-oxidoreductase-a-chain)], the IC50 in experiment [1] was above 20 µM; in experiment [2] it was 0.008 µM.
Consider KRVVINKDT [… (Y. enterocolitica Hsp60)], for which the IC50 in experiment [1] and in experiment [2] was above 20 µM throughout.
Turning to RRYQKSTEL [… (E. coli derived)], the values for the IC50 in experiment [1] and in experiment [2] were 6.65 µM and 0.291 µM, respectively.

Source of the values: PMC3633659.
